Tests used:
[1] = biological target: T1, purified recombinant full-length WDR5 (UniProt P61964 2-334); assay: GST pull-down with purified WDR5, Coomassie-stained gel
[2] = biological target: T1, purified recombinant full-length WDR5; assay: cell-based or functional assay
[3] = biological target: T1, purified recombinant full-length WDR5; assay: cell-based or functional assay; remark: listed apart in the source
[4] = biological target: T1, purified recombinant full-length WDR5; assay: ITC, Kd compared with Table I
Procedure: (§1) In the present disclosure, we synthesized a six-residue peptidomimetic.
(§2) Isothermal titration calorimetry (ITC). […] ITC experiments were carried out at 20° C. using a VP-ITC micro-calorimeter (MicroCal). […] Reference power was set to 10 μCal/sec and stirring speed was set to 295 rpm. Data were integrated using NITPIC. SEDPHAT was used to fit the integrated data to a single-site heterogeneous association model, using simulated annealing and Maxquardt-Levenberg algorithms. Automatic confidence interval search with projection method was applied to estimate the error of the determined thermodynamic parameters. Confidence interval was set to 2σ (95%). ITC figure was generated using GUSSI.

[5] = biological target: T1, purified recombinant full-length WDR5; assay: ITC at 20 C, Win6mer (200 µM) titrated into full-length WDR5 (20 µM); 95% confidence interval 1.7-4.2 nM
Procedure: as §1, §2

[6] = biological target: endogenous WDR5 (MCF-7 cell extracts; T-REx HEK293 nuclear extracts) (human, UniProt P61964 2-334); assay: anti-Flag co-immunoprecipitation from T-REx HEK293 cells, Western blot
Procedure: Co-immunoprecipitation from mammalian cells. […] Following induction with doxycycline, nuclear extracts were prepared as described and incubated with anti-Flag M2 agarose beads (Sigma) for 3 h. Bound proteins were eluted with SDS sample buffer after extensive washing and analyzed by Western blotting.

B1: GST-tagged SETd1B Win-SET domain, Setd1B(1727-1966), R1748A (enzyme)
chain: LSSAKKKKRDDGIREHVTGCAASEGFYTIDKKDKLRYLNSSRASTDEPPADTQGMSIPAQPHASTRAGSERRSEQRRLLSSFTGSCDSDLLKFNQLKFRKKKLKFCKSHIHDWGLFAMEPIAADEMVIEYVGQNIRQVIADMREKRYEDEGIGSSYMFRVDHDTIIDATKCGNFARFINHSCNPNCYAKVITVESQKKIVIYSKQHINVNEEITYDYKFPIEDVKIPCLCGSENCRGTLN
notes: also called SETd1B^R1748A; SETd1B Win motif mutant; not shown: GST tag of the pGST parallel vector, with its linker, at the N end
binding result [1]: no binding (tested: 3 µM)

B2: Win6mer, Ac-ARTEVY-NH2 (SEQ ID NO:8, N-terminus acetylated and C-terminus amidated) (peptide)
peptide: Ac-ARTEVY-NH2
notes: Synthesized by GenScript; also called 6-mer Win motif peptidomimetic
IC50, inhibition of MLL1 core complex, 0.5 µM enzyme complex assayed [2]: 300 nM
IC50, inhibition of MLL1 core complex, 1 µM enzyme complex assayed [2]: 800 nM
IC50, inhibition of MLL1 core complex, 1.8 µM enzyme complex assayed [2]: 2200 nM
average IC50, inhibition of MLL1 core complex (2 µM of enzyme complex assayed) [2]: 2200 nM
average IC50, inhibition of SETd1A core complex (2 µM of enzyme complex assayed) [2]: 2500 nM
IC50, inhibition of MLL1 core complex methyltransferase activity, H3K4me0 substrate (scintillation proximity assay) [3]: 2300 nM
IC50, inhibition of MLL1 core complex methyltransferase activity, H3K4me1 substrate (scintillation proximity assay) [3]: 2200 nM
IC50, inhibition of SETd1A core complex methyltransferase activity, H3K4me0 substrate (scintillation proximity assay) [3]: 3200 nM
IC50, inhibition of SETd1A core complex methyltransferase activity, H3K4me1 substrate (scintillation proximity assay) [3]: 2900 nM
IC50, inhibition of SETd1A core complex methyltransferase activity, H3K4me2 substrate (scintillation proximity assay) [3]: 2400 nM
fold increase in binding affinity over the best naturally occurring Win motif sequence [4]: ~18 fold
Kd [5]: 2.9 nM

B3: Flag-tagged full-length human SETd1B, Win motif arginine to alanine mutant (enzyme)
chain: MENSHPPHHHHQQPPPQPGPSGERRNHHWRSYKLMIDPALKKGHHKLYRYDGQHFSLAMSSNRPVEIVEDPRVVGIWTKNKELELSVPKFKIDEFYVGPVPPKQVTFAKLNDNIRENFLRDMCKKYGEVEEVEILYNPKTKKHLGIAKVVFATVRGAKDAVQHLHSTSVMGNIIHVELDTKGETRMRFYELLVTGRYTPQTLPVGELDAVSPIVNETLQLSDALKRLKDGGLSAGCGSGSSSVTPNSGGTPFSQDTAYSSCRLDTPNSYGQGTPLTPRLGTPFSQDSSYSSRQPTPSYLFSQDPAVTFKARRHESKFTDAYNRRHEHHYVHNSPAVTAVAGATAAFRGSSDLPFGAVGGTGGSSGPPFKAQPQDSATFAHTPPPAQATPAPGFKSAFSPYQTPVAHFPPPPEEPTATAAFGARDSGEFRRAPAPPPLPPAEPLAKEKPGTPPGPPPPDTNSMELGGRPTFGWSPEPCDSPGTPTLESSPAGPEKPHDSLDSRIEMLLKEQRTKLLFLREPDSDTELQMEGSPISSSSSQLSPLAPFGTNSQPGFRGPTPPSSRPSSTGLEDISPTPLPDSDEDEELDLGLGPRPPPEPGPPDPAGLLSQTAEVALDLVGDRTPTSEKMDEGQQSSGEDMEISDDEMPSAPITSADCPKPMVVTPGAAAVAAPSVLAPTLPLPPPPGFPPLPPPPPPPPPQPGFPMPPPLPPPPPPPPPAHPAVTVPPPPLPAPPGVPPPPILPPLPPFPPGLFPVMQVDMSHVLGGQWGGMPMSFQMQTQVLSRLMTGQGACPYPPFMAAAAAAASAGLQFVNLPPYRGPFSLSNSGPGRGQHWPPLPKFDPSVPPPGYMPRQEDPHKATVDGVLLVVLKELKAIMKRDLNRKMVEVVAFRAFDEWWDKKERMAKASLTPVKSGEHKDEDRPKPKDRIASCLLESWGKGEGLGYEGLGLGIGLRGAIRLPSFKVKRKEPPDTTSSGDQKRLRPSTSVDEEDEESERERDRDMADTPCELAKRDPKGVGVRRRPARPLELDSGGEEDEKESLSASSSSSASSSSGSSTTSPSSSASDKEEEQESTEEEEEAEEEEEEEVPRSQLSSSSTSSTSDKDDDDDDSDDRDESENDDEDTALSEASEKDEGDSDEEETVSIVTSKAEATSSSESSESSEFESSSESSPSSSEDEEEVVAREEEEEEEEEEMVAEESMASAGPEDFEQDGEEAALAPGAPAVDSLGMEEEVDIETEAVAPEERPSMLDEPPLPVGVEEPADSREPPEEPGLSQEGAMLLSPEPPAKEVEARPPLSPERAPEHDLEVEPEPPMMLPLPLQPPLPPPRPPRPPSPPPEPETTDASHPSVPPEPLAEDHPPHTPGLCGSLAKSQSTETVPATPGGEPPLSGGSSGLSLSSPQVPGSPFSYPAPSPSLSSGGLPRTPGRDFSFTPTFSEPSGPLLLPVCPLPTGRRDERSGPLASPVLLETGLPLPLPLPLPLPLALPAVLRAQARAPTPLPPLLPAPLASCPPPMKRKPGRPRRSPPSMLSLDGPLVRPPAGAALGRELLLLPGQPQTPVFPSTHDPRTVTLDFRNAGIPAPPPPLPPQPPPPPPPPPVEPTKLPFKELDNQWPSEAIPPGPRGRDEVTEEYMELAKSRGPWRRPPKKRHEDLVPPAGSPELSPPQPLFRPRSEFEEMTILYDIWNGGIDEEDIRFLCVTYERLLQQDNGMDWLNDTLWVYHPSTSLSSAKKKKRDDGIREHVTGCAASEGFYTIDKKDKLRYLNSSRASTDEPPADTQGMSIPAQPHASTRAGSERRSEQRRLLSSFTGSCDSDLLKFNQLKFRKKKLKFCKSHIHDWGLFAMEPIAADEMVIEYVGQNIRQVIADMREKRYEDEGIGSSYMFRVDHDTIIDATKCGNFARFINHSCNPNCYAKVITVESQKKIVIYSKQHINVNEEITYDYKFPIEDVKIPCLCGSENCRGTLN
notes: mature; also called SETd1B Win motif mutant (full-length); not shown: Flag tag
binding result [6]: no binding

From patent US20180282373A1 (RESEARCH FOUNDATION FOR THE STATE UNIVERSITY OF NEW YORK, published 2018)
